# Tests used:
# HeLa Kyoto [1] = experiment: solubility in G1/S (NP-40 vs SDS abundance) (log2 ratio); higher = more soluble; conditions: cell cycle stage: G1/S
# HeLa Kyoto [2] = experiment: melting temperature (median over replicates), in situ; higher = more thermally stable
# HeLa Kyoto [3] = experiment: solubility change mitosis vs G1/S (difference of NP-40 vs SDS log2 ratios) (log2 ratio difference); higher = more soluble in mitosis
# HeLa Kyoto [4] = experiment: thermal stability score vs G1/S (z-score of summed log2 fold changes over temperatures); higher = more thermally stable than in G1/S
# [5] = cell cycle stage: early G1 (4.5 h after nocodazole release)
# 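Throughout, for melting temperature (median over replicates), in situ: HeLa Kyoto cells synchronized by double thymidine or nocodazole block, proteins quantified by TMT10plex mass spectrometry, three independent biological replicates.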
# 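Throughout, for solubility change mitosis vs G1/S (difference of NP-40 vs SDS log2 ratios): synchronized HeLa Kyoto cells (double thymidine block for G1/S, nocodazole release for mitosis), protein amounts in NP-40 versus SDS lysates quantified by mass spectrometry, three biological replicates.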
# 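Throughout, for solubility in G1/S (NP-40 vs SDS abundance): HeLa Kyoto cells arrested at G1/S by double thymidine block, proteins quantified by TMT10plex mass spectrometry in mild NP-40 versus SDS extracts, three biological replicates.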
# 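Throughout, for thermal stability score vs G1/S (z-score of summed log2 fold changes over temperatures): synchronized HeLa Kyoto cells, proteins quantified by TMT10plex mass spectrometry, three biological replicates, mitosis taken 0.5 h after nocodazole release, G1/S directly after double thymidine block.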
Sequence,solubility in G1/S (log2) (HeLa Kyoto [1]),melting temperature (HeLa Kyoto [2]; cell cycle stage: G1/S),melting temperature (HeLa Kyoto [2]; cell cycle stage: mitosis),solubility change mitosis (log2) (HeLa Kyoto [3]),thermal stability score (HeLa Kyoto [4]; [5]),thermal stability score (HeLa Kyoto [4]; cell cycle stage: mitosis)
MEAVAVAAAVGVLLLAGAGGAAGDEAREAAAVRALVARLLGPGPAADFSVSVERALAAKPGLDTYSLGGGGAARVRVRGSTGVAAAAGLHRYLRDFCGCHVAWSGSQLRLPRPLPAVPGELTEATPNRYRYYQNVCTQSYSFVWWDWARWEREIDWMALNGINLALAWSGQEAIWQRVYLALGLTQAEINEFFTGPAFLAWGRMGNLHTWDGPLPPSWHIKQLYLQHRVLDQMRSFGMTPVLPAFAGHVPEAVTRVFPQVNVTKMGSWGHFNCSYSCSFLLAPEDPIFPIIGSLFLRELIKEFGTDHIYGADTFNEMQPPSSEPSYLAAATTAVYEAMTAVDTEAVWLLQGWLFQHQPQFWGPAQIRAVLGAVPRGRLLVLDLFAESQPVYTRTASFQGQPFIWCMLHNFGGNHGLFGALEAVNGGPEAARLFPNSTMVGTGMAPEGISQNEVVYSLMAELGWRKDPVPDLAAWVTSFAARRYGVSHPDAGAAWRLLLRSVYNCSGEACRGHNRSPLVRRPSLQMNTSIWYNRSDVFEAWRLLLTSAPSLATSPAFRYDLLDLTRQAVQELVSLYYEEARSAYLSKELASLLRAGGVLAYELLPALDEVLASDSRFLLGSWLEQARAAAVSEAEADFYEQNSRYQLTLWGPEGNILDYANKQLAGLVANYYTPRWRLFLEALVDSVAQGIPFQQHQFDKNVFQLEQAFVLSKQRYPSQPRGDTVDLAKKIFLKYYPRWVAGSW [NAGLU],0.341,55.7 °C,55.5 °C,-0.238,-2.49,-1.73
MEAVKTFNSELYSLNDYKPPISKAKMTQITKAAIKAIKFYKHVVQSVEKFIQKCKPEYKVPGLYVIDSIVRQSRHQFGQEKDVFAPRFSNNIISTFQNLYRCPGDDKSKIVRVLNLWQKNNVFKSEIIQPLLDMAAGIPPPVVTPVLASTTTAMSNTPGTPVTPVTPANVVQGLPDPWVSQITNTDTLAAVAQILQSPQGQQLQQLIQTLQIQQQKPQPSILQALDAGLVVQLQALTAQLTAAAAAANTLTPLEQGVSFNKKLMDRFDFGEDSEHSEEPKKEIPASQLSHVSESVNNSIFHQIAEQLQQQNLEHLRQQLLEQQQPQKATPQDSQEGTFGSEHSASPSQGSSQQHFLEPEVNLDDSIDIQQQDMDIDEGQDGVEEEVFEQEAKKVAVRSRSRTHSRSRSRSPRKRRSRSRSGSRKRKHRKRSRSRSRERKRKSSRSYSSERRAREREKERQKKGLPPIRSKTLSVCSTTLWVGQVDKKATQQDLTNLFEEFGQIESINMIPPRGCAYVCMVHRQDAFRALQKLSSGSYKIGSKVIKIAWALNKGVKTEYKQFWDVDLGVTYIPWEKVKVDDLEGFAEGGMIDQETVNTEWETVKSSEPVKETVQTTQSPTPVEKETVVTTQAEVFPPPVAMLQIPVAPAVPTVSLVPPAFPVSMPVPPPGFSPIPPPPFLRASFNPSQPPPGFMPPPVPPPVVPPPTIPPVVPTSLVQPSLSMTPETVKDVGFGSLVIPGGSVASNLATSALPAGNVFNAPTKQAEPEEKVPHLIDHQISSGENTRSVIPNDISSNAAILGGQPPNVTSNSGILGVQRPNVSSNSEILGVRPSNVSSSSGIIAAQPPNILNNSGILGIQPPSVSNSSGLLGVLPPNIPNNSGLVGVQPPNVPNTPGLLGTQPPAGPQNLPPLSIPNQRMPTMPMLDIRPGLIPQAPGPRFPLIQPGIPPQRGIPPPSVLDSALHPPPRGPFPPGDIFSQPERPFLAPGRQSVDNVTNPEKRIPLGNDNIQQEGDRDYRFPPIETRESISRPPPVDVRDVVGRPIDPREGPGRPPLDGRDHFGRPPVDIRENLVRPGIDHLGRRDHFGFNPEKPWGHRGDFDEREHRVLPVYGGPKGLHEERGRFRSGNYRFDPRSGPWNRGFGQEVHRDFDDRRRPWERQRDRDDRDFDFCREMNGNRLGRDRIQNTWVPPPHARVFDYFEGATSQRKGDNVPQVNGENTERHAQPPPIPVQNDPELYEKLTSSNEINKEKSDTVADIESEPVVESTETEGT [SCAF8],-0.11,48.6 °C,49.3 °C,-0.0284,0.536,0.448
MEDDAPVIYGLEFQARALTPQTAETDAIRFLVGTQSLKYDNQIHIIDFDDENNIINKNVLLHQAGEIWHISASPADRGVLTTCYNRTSDSKVLTCAAVWRMPKELESGSHESPDDSSSTAQTLELLCHLDNTAHGNMACVVWEPMGDGKKIISLADNHILLWDLQESSSQAVLASSASLEGKGQLKFTSGRWSPHHNCTQVATANDTTLRGWDTRSMSQIYCIENAHGQLVRDLDFNPNKQYYLASCGDDCKVKFWDTRNVTEPVKTLEEHSHWVWNVRYNHSHDQLVLTGSSDSRVILSNMVSISSEPFGHLVDDDDISDQEDHRSEEKSKEPLQDNVIATYEEHEDSVYAVDWSSADPWLFASLSYDGRLVINRVPRALKYHILL [TSSC1],0.0334,51.9 °C,52.9 °C,-0.21,-0.291,-0.357
MEDGKPVWAPHPTDGFQMGNIVDIGPDSLTIEPLNQKGKTFLALINQVFPAEEDSKKDVEDNCSLMYLNEATLLHNIKVRYSKDRIYTYVANILIAVNPYFDIPKIYSSEAIKSYQGKSLGTRPPHVFAIADKAFRDMKVLKMSQSIIVSGESGAGKTENTKFVLRYLTESYGTGQDIDDRIVEANPLLEAFGNAKTVRNNNSSRFGKFVEIHFNEKSSVVGGFVSHYLLEKSRICVQGKEERNYHIFYRLCAGASEDIREKLHLSSPDNFRYLNRGCTRYFANKETDKQILQNRKSPEYLKAGSMKDPLLDDHGDFIRMCTAMKKIGLDDEEKLDLFRVVAGVLHLGNIDFEEAGSTSGGCNLKNKSAQSLEYCAELLGLDQDDLRVSLTTRVMLTTAGGTKGTVIKVPLKVEQANNARDALAKTVYSHLFDHVVNRVNQCFPFETSSYFIGVLDIAGFEYFEHNSFEQFCINYCNEKLQQFFNERILKEEQELYQKEGLGVNEVHYVDNQDCIDLIEAKLVGILDILDEENRLPQPSDQHFTSAVHQKHKDHFRLTIPRKSKLAVHRNIRDDEGFIIRHFAGAVCYETTQFVEKNNDALHMSLESLICESRDKFIRELFESSTNNNKDTKQKAGKLSFISVGNKFKTQLNLLLDKLRSTGASFIRCIKPNLKMTSHHFEGAQILSQLQCSGMVSVLDLMQGGYPSRASFHELYNMYKKYMPDKLARLDPRLFCKALFKALGLNENDYKFGLTKVFFRPGKFAEFDQIMKSDPDHLAELVKRVNHWLTCSRWKKVQWCSLSVIKLKNKIKYRAEACIKMQKTIRMWLCKRRHKPRIDGLVKVGTLKKRLDKFNEVVSVLKDGKPEMNKQIKNLEISIDTLMAKIKSTMMTQEQIQKEYDALVKSSEELLSALQKKKQQEEEAERLRRIQEEMEKERKRREEDEKRRRKEEEERRMKLEMEAKRKQEEEERKKREDDEKRIQAEVEAQLARQKEEESQQQAVLEQERRDRELALRIAQSEAELISDEAQADLALRRSLDSYPVSKNDGTRPKMTPEQMAKEMSEFLSRGPAVLATKAAAGTKKYDLSKWKYAELRDTINTSCDIELLAACREEFHRRLKVYHAWKSKNKKRNTETEQRAPKSVTDYDFAPFLNNSPQQNPAAQIPARQREIEMNRQQRFFRIPFIRPADQYKDPQSKKKGWWYAHFDGPWIARQMELHPDKPPILLVAGKDDMEMCELNLEETGLTRKRGAEILPRQFEEIWERCGGIQYLQNAIESRQARPTYATAMLQSLLK [MYO6],-0.238,52.1 °C,51.5 °C,-0.164,-0.962,-1.32
MEDTPLVISKQKTEVVCGVPTQVVCTAFSSHILVVVTQFGKMGTLVSLEPSSVASDVSKPVLTTKVLLGQDEPLIHVFAKNLVAFVSQEAGNRAVLLAVAVKDKSMEGLKALREVIRVCQVW [PSMG3],0.13,57.8 °C,56.2 °C,-0.0857,-1.46,-2.93
MEEEDESRGKTEESGEDRGDGPPDRDPTLSPSAFILRAIQQAVGSSLQGDLPNDKDGSRCHGLRWRRCRSPRSEPRSQESGGTDTATVLDMATDSFLAGLVSVLDPPDTWVPSRLDLRPGESEDMLELVAEVRIGDRDPIPLPVPSLLPRLRAWRTGKTVSPQSNSSRPTCARHLTLGTGDGGPAPPPAPSSASSSPSPSPSSSSPSPPPPPPPPAPPAPPAPRFDIYDPFHPTDEAYSPPPAPEQKYDPFEPTGSNPSSSAGTPSPEEEEEEEEEEEEEEEDEEEEEGLSQSISRISETLAGIYDDNSLSQDFPGDESPRPDAQPTQPTPAPGTPPQVDSTRADGAMRRRVFVVGTEAEACREGKVSVEVVTAGGAALPPPLLPPGDSEIEEGEIVQPEEEPRLALSLFRPGGRAARPTPAASATPTAQPLPQPPAPRAPEGDDFLSLHAESDGEGALQVDLGEPAPAPPAADSRWGGLDLRRKILTQRRERYRQRSPSPAPAPAPAAAAGPPTRKKSRRERKRSGEAKEAASSSSGTQPAPPAPASPWDSKKHRSRDRKPGSHASSSARRRSRSRSRSRSTRRRSRSTDRRRGGSRRSRSREKRRRRRRSASPPPATSSSSSSRRERHRGKHRDGGGSKKKKKRSRSRGEKRSGDGSEKAPAPAPPPSGSTSCGDRDSRRRGAVPPSIQDLTDHDLFAIKRTITVGRLDKSDPRGPSPAPASSPKREVLYDSEGLSGEERGGKSSQKDRRRSGAASSSSSSREKGSRRKALDGGDRDRDRDRDRDRDRSSKKARPPKESAPSSGPPPKPPVSSGSGSSSSSSSCSSRKVKLQSKVAVLIREGVSSTTPAKDAASAGLGSIGVKFSRDRESRSPFLKPDERAPTEMAKAAPGSTKPKKTKVKAKAGAKKTKGTKGKTKPSKTRKKVRSGGGSGGSGGQVSLKKSKADSCSQAAGTKGAEETSWSGEERAAKVPSTPPPKAAPPPPALTPDSQTVDSSCKTPEVSFLPEEATEEAGVRGGAEEEEEEEEEEEEEEEEEEQQPATTTATSTAAAAPSTAPSAGSTAGDSGAEDGPASRVSQLPTLPPPMPWNLPAGVDCTTSGVLALTALLFKMEEANLASRAKAQELIQATNQILSHRKPPSSLGMTPAPVPTSLGLPPGPSSYLLPGSLPLGGCGSTPPTPTGLAATSDKREGSSSSEGRGDTDKYLKKLHTQERAVEEVKLAIKPYYQKKDITKEEYKDILRKAVHKICHSKSGEINPVKVSNLVRAYVQRYRYFRKHGRKPGDPPGPPRPPKEPGPPDKGGPGLPLPPL [SCAF1],-1.69,49.5 °C,50.2 °C,1.41,-0.0585,1.29

# Source: the supplement of paper PMC5998384
